Data from PMC5768801, “The PII signaling protein from red algae represents an evolutionary link between cyanobacterial and Chloroplastida PII proteins” (Scientific Reports, 2018).

Legend:
ScPipX = experiment: SPR analysis of PipX binding to PII proteins; set-up: species or system Synechocystis sp. PCC 6803; details: His-tagged ScPipX immobilized, 200 nM PII protein, ADP
Description: Additionally, we assessed whether PpPII could bind to PipX by surface plasmon resonance (SPR) spectroscopy (Supplementary Fig. S3C). The N-terminally His-tagged ScPipX was immobilized on a Ni-HTG sensor chip and probed with ScPII together with effector molecule ADP. Interaction between PpPII and PipX was not observed.
SPR experiments were conducted using a ProteOn XPR36 system (Bio-Rad) in HBS buffer (10 mM HEPES, 150 mM NaCl, 1 mM MgCl2, and 0.005% Tween 20, pH 7.5) at 25 °C. Immobilization of ligand, 1 µM His6-PipX (200 µl), was performed on a Ni^+-loaded HTG sensor chip (Bio-Rad Laboratories) in the vertical orientation into the channel L2, and the continuous running buffer was used at a flow rate of 30 µl/min. The immobilization level was approximately 3000 resonance units (RU). […] The binding of PII proteins to PipX was recorded as a response signal difference of L2 and L1. All binding sensorgrams were collected, processed and analyzed using the integrated ProteOn Manager software (Bio-Rad Laboratories).
(§1) Figure S3. […] Complex formation between PipX and ScPII (A) or PpPII (B) was assessed by pull-down. […] (C) Complex formation between PipX and PII proteins was assessed by SPR. […]

ScNAGK = target: T1, ScNAGK (Synechocystis sp., UniProt P73326); experiment: Coupled NAGK activity assay, ScNAGK; format: biochemical, Synechocystis sp. PCC 6803
T1 sequence (P73326 1-297): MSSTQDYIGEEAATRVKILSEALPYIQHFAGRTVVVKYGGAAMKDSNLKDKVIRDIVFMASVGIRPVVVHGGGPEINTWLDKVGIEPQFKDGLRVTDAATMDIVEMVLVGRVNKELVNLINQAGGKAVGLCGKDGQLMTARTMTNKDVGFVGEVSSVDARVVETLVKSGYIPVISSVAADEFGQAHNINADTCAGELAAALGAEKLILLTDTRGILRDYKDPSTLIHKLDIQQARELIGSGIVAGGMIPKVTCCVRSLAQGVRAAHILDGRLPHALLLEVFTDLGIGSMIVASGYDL
Description: The assess the activity of ScNAGK was measured with an enzyme assay, in which the ADP production was coupled to the NADH oxidation by the auxiliary enzymes pyruvate kinase and lactate dehydrogenase according to previously described procedure[32],[50]. […] The oxidation reaction of NADH was recorded for 10 min using spectrophotometer (SPECORD 210 PLUS, Analytik Jena AG) at 340 nm. […] The NADH molar absorption coefficient is 6178 L mol^−1 cm^−1 for at 340 nm, which was used for calculation. […] From the velocity slopes, the enzymatic constants Km, Kcat and IC50 were calculated using the Graph-Pad Prism software (GraphPad Software, USA).

PipX = experiment: Pull-down analysis of PipX binding to PII proteins; set-up: species or system Synechocystis sp. PCC 6803; details: 10 µM proteins, 1 mM ADP, Strep-Tactin column, Tricine-SDS-PAGE
Source text: In cyanobacteria, PipX is the second known receptor of PII signaling. We questioned whether red algal PII proteins have lost or retained the ability to bind to PipX. To test this possibility, we first analyzed complex formation using pull-down experiments (Supplementary Fig. S3A and B). The PII protein from Synechocystis sp. PCC 6803 (ScPII) was mixed with PipX in the presence of ADP and then the Strep-tagged PII was immobilized on the Strep-Tactin II column (Supplementary Fig. S3A). After extensive washes, the proteins were eluted with desthiobiotin and analyzed by Tricine-SDS-PAGE. Both proteins were detected in the elution. Thus, confirming previous studies[16]–[18], cyanobacterial PII was bound to PipX. When PpPII in the presence of PipX was immobilized on the column, no PipX signal was detected in the elution (Supplementary Fig. S3B).
For complex formation, the binding reactions were done in 300 μl of buffer (100 mM Tris HCl, pH 8.0, 150 mM NaCl, 1 mM EDTA) by adding 10 µM of purified proteins: His6-ScPipX and Strep-tag ScPII or Strep-tag PpPII. […] The eluted fractions were analyzed by Tricine-SDS PAGE[51] and stained with SimplyBlue™ SafeStain (Invitrogen).
as §1

B1: PpPII: PII from the red alga Porphyra purpurea, recombinant Strep-tagged or His-tagged protein (protein)
chain: MKKIEAIIRPFKLNEVKLALVKGGIGGMTVVKVSGFGRQKGQTERYKGSEYSIDIIDKIKIEIIVSDDKVNSITEIIIKTAKTGEIGDGKIFISDVEQVIRIRTNDLNSAAL
modifications: left off: Strep-tag II, C-terminal, kept
notes: PII from the red alga Porphyra purpurea, recombinant Strep-tagged or His-tagged protein
interaction with PipX (SPR) (ScPipX): not observed
raise of the IC50 for arginine on addition of PpPII to ScNAGK (ScNAGK; 50 mM NAG, 10 mM ATP, without glutamine): approximately 4 fold
increase of the overall NAGK catalytic efficiency by complex formation with PpPII (ScNAGK; PpPII-complexed versus free ScNAGK): about 4 fold
complex formation with PipX (pull-down) (PipX): did not interact with PipX
